Experimental findings from PMC10154539 (Cell Reports, 2023) are described below.

For test [1], the target named is T1, S-ECD protein of SARS-CoV-2 Omicron (B.1.1.529) (SARS-CoV-2 B.1.1.529 (Omicron), strain). The test is described as follows: ELISA.
The target in test [2] is T1, S-ECD protein of SARS-CoV-2 Omicron …. Put plainly: cell-based or functional assay.
Test [3] deals with SARS-CoV-2 Spike protein (ECD, His & FLAG tag), Wuhan-Hu-1 (wild-type) (SARS-CoV-2 Wuhan-Hu-1, UniProt P0DTC2). The test is described as follows: ELISA.

B1: XG005a (antibody, V domains shown)
VH: QITLKESGPTLVKPTQTLTLTCTFSGFSLSTSGVGVGWIRQPPGKALEWLALIYWDNDKRYSPSLKSRLTITMDTSKNQVVLTMTNMDPVDTATYYCARLPSTDTIFDYWGQGALVTVSS
VL: QSALTQPASVSGSPGQSITVSCTGTSSDVGDYNYVSWYQQHPGKAPKLMIYDVSKRPSGVSNRFSGSKSGKTASLTISGLQAEDEADYYCSSYTSTSVVFGGGTKLTVL
Take B1: the “ELISA AUC” value in test [1] was ~26. For the same molecule, the “IC50 of neutralization of Omicron pseudovirus, Huh-7 cells, luciferase” value in test [2] is > 10 µg/mL.

B2: XG005c (antibody, V domains shown)
VH: QITLKESGPTLVKPTQTLTLTCTFSGFSLSTSGVGVGWIRQPPGKALEWLALIYWDDDKRYSPSLKSRLTITKDTSKNQVVVTMTNMDPVDTATYYCARLPATDTIFDSWGQGTLVTVSS
VL: QSALTQPASVSGSPGQSITISCTGTSSDVGAYNYVSWYQQHPGKAPKLMIYDVSKRPSGVSNRFSGSKSGYTASLTISGLQPEDEADYFCSSYTTTSVVFGGGTKLTVL
B2: in test [1], the “ELISA AUC” value was ~30. Further, in test [2], the “IC50 of neutralization of Omicron pseudovirus, Huh-7 cells, luciferase” value came to 2 µg/mL.

B3: XG005 (antibody, V domains shown)
VH: QVTLRESGPTLVKPKQTLTLTCTFSGFSLSTPGGGVGWIRQPPGKALEWLALIYWDDDKRYSPSLKSSLTITKDTSKNQVVLTMTNMDPVDTATYYCARLTAADTIFDCWGQGTLVTVSS
VL: QSALTQPASVSGSPGLSITISCTATSSDVGAYNYVSWYQQHPGQAPKLMIYDVSKRPSGVSNRFSGSKSANTASLTISGLQAEDEADYYCSSYTTTSVVFGGGTKLTVL
With B3, in test [3], the binding result is given as “binds”. Besides, the “ELISA AUC” value in test [1] was ~30.
